Laboratory results taken from patent publication US20050282743A1, “Molecular interactions in cells” (Arbor Vita Corporation, priority 2001, published 2005).

Key:
[1] = molecular target: GST-Atrophin-1 Interacting Protein PDZ domain 5 (Rattus norvegicus (Rat)), O88382; assay: G' assay; further: key of the grades not given here
[2] = molecular target: GST-BAI-1 Associated Protein PDZ domain 6 (Homo sapiens (Human)), Q96QZ7; assay: G' assay; further: key of the grades not given here
[3] = molecular target: GST-KIAA0147 PDZ domain 1 (Homo sapiens (Human)), Q14160; assay: G' assay; further: key of the grades not given here
[4] = molecular target: T1, GST-KIAA0382 PDZ domain 1 (Canis lupus familiaris (Dog) (Canis familiaris)), A0A8I3; assay: G' assay; further: key of the grades not given here
T1 chain: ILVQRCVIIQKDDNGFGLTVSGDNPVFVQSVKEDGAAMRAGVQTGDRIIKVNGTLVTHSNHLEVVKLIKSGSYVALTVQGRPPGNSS

[5] = molecular target: T2, GST-KIAA0807(S) PDZ domain 1 (Homo sapiens (Human)), Q6P0Q8; assay: G' assay; further: key of the grades not given here
T2 chain: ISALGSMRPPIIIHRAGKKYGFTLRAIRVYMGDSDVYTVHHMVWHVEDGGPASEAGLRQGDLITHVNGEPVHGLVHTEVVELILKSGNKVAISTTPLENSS

[6] = molecular target: GST-KIAA1634 PDZ domain 5 (Homo sapiens (Human)), Q5TCQ9; assay: G' assay; further: key of the grades not given here
[7] = molecular target: GST-KIAA807 [GST: P08515]; assay: G' assay; further: key of the grades not given here
[8] = molecular target: T3, GST-LIM-RIL PDZ domain 1 (Homo sapiens (Human)), P50479; assay: G' assay; further: key of the grades not given here
T3 chain: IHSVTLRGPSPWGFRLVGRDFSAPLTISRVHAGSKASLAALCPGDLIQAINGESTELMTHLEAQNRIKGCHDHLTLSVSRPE

[9] = molecular target: T4, GST-PTN-4 PDZ domain 1 (Homo sapiens (Human)), P29074; assay: G' assay; further: key of the grades not given here
T4 chain: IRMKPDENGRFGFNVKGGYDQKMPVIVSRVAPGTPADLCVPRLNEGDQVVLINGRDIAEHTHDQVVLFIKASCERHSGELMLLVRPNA

[10] = molecular target: T5, GST-Shank 1 PDZ domain 1 (Homo sapiens (Human)), Q9UPX8; assay: G' assay; further: key of the grades not given here
T5 chain: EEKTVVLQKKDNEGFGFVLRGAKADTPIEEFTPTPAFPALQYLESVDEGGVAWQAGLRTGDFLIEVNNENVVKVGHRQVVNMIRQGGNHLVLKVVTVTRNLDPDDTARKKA

[11] = molecular target: T6, GST-KIAA1526 PDZ domain 1 (Homo sapiens (Human)), Q9P202; assay: G' assay; further: key of the grades not given here
T6 chain: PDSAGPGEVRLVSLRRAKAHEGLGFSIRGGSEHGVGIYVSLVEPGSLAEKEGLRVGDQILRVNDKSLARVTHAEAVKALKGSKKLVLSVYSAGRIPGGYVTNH

[12] = molecular target: T7, GST-ZO-1 PDZ domain 1 (Rattus norvegicus (Rat)), A0A0G2; assay: G' assay; further: key of the grades not given here
T7 chain: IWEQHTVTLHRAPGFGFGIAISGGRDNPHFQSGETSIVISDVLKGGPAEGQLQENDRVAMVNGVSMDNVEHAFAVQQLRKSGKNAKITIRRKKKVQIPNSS

[13] = molecular target: T8, GST-ZO-1 PDZ domain 2 (Rattus norvegicus (Rat)), A0A0G2; assay: G' assay; further: key of the grades not given here
T8 chain: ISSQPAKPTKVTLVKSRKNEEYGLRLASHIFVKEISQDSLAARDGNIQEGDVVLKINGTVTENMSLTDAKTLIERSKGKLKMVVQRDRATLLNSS

[14] = molecular target: T9, GST-ZO-2 PDZ domain 2 (Homo sapiens (Human)), Q9UDY2; assay: G' assay; further: key of the grades not given here
T9 chain: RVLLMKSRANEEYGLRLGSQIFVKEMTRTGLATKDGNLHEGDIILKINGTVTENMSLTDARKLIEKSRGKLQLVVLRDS

[15] = molecular target: T10, GST-APXL-1 PDZ domain 1 (Homo sapiens (Human)), Q13796; assay: G' assay; further: key of the grades not given here
T10 chain: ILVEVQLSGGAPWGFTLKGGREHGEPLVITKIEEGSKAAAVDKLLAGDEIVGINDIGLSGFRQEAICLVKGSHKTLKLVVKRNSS

[16] = molecular target: T11, GST-FLJ00011 PDZ domain 1 (Homo sapiens (Human)), Q9H5P4; assay: G' assay; further: key of the grades not given here
T11 chain: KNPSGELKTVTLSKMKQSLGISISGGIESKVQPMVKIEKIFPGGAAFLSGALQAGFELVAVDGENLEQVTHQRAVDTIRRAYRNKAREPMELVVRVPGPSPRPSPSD

[17] = molecular target: GST-KIAA0316 PDZ domain 1 (Homo sapiens (Human)), Q14CM0; assay: G' assay; conditions: remark: other sources report otherwise; further: key of the grades not given here
[18] = molecular target: T12, GST-Outer Membrane PDZ domain 1 (Homo sapiens (Human)), P57105; assay: G' assay; further: key of the grades not given here
T12 chain: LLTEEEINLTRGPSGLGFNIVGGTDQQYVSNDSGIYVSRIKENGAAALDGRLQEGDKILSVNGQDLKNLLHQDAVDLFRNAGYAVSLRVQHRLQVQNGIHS

[19] = molecular target: T13, GST-PDZK1 PDZ domains 2, 3, 4, Q5T2W1; assay: G' assay; further: key of the grades not given here
T13 chain: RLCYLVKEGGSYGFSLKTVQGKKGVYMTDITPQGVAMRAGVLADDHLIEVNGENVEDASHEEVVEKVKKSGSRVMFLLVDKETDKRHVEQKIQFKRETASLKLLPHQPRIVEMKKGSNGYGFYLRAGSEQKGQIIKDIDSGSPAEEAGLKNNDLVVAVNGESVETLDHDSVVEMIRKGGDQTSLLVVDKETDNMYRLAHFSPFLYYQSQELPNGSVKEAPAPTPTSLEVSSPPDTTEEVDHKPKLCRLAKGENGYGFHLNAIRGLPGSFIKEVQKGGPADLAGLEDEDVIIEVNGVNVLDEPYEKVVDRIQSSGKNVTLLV

[20] = molecular target: GST-PIST PDZ domain 1 (Mus musculus (Mouse)), Q8BH60; assay: G' assay; further: key of the grades not given here
[21] = molecular target: T14, GST-Shank 3 PDZ domain 1 (human (hypothetical, computer cloned)), Q9BYB0; assay: G' assay; further: key of the grades not given here
T14 chain: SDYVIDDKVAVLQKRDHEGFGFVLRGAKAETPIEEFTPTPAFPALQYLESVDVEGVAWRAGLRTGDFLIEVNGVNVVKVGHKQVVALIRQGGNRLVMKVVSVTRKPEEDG

[22] = molecular target: T2, GST-KIAA0807(S) PDZ domain 1 (Homo …); assay: G assay titration, PDZ 0.5 ug/ml
[23] = molecular target: T15, GST-AIPC PDZ domain 1 (Homo sapiens (Human)), O15018; assay: G' assay; further: key of the grades not given here
T15 chain: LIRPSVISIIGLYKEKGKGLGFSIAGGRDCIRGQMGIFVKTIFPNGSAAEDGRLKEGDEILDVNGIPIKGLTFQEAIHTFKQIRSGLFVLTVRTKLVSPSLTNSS

[24] = molecular target: T16, GST-ENIGMA PDZ domain 1 (Homo sapiens (Human)), Q9NR12; assay: G' assay; further: key of the grades not given here
T16 chain: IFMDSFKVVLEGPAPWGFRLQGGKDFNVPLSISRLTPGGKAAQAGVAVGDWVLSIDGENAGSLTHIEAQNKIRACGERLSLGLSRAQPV

[25] = molecular target: T17, GST-KIAA0973 PDZ domain 1 (Homo sapiens (Human)), Q9Y2H9; assay: G' assay; further: key of the grades not given here
T17 chain: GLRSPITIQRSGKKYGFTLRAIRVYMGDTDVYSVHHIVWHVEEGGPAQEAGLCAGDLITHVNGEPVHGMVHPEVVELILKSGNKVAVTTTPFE

[26] = molecular target: T18, GST-LIM Mystique PDZ domain 1 (Homo sapiens (Human)), Q96JY6; assay: G' assay; further: key of the grades not given here
T18 chain: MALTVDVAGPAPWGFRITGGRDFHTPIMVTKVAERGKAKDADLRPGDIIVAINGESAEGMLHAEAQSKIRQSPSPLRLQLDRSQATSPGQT

[27] = molecular target: T19, GST-MINT1 PDZ domain 2 (Mus musculus (Mouse)), B2RUJ5; assay: G' assay; further: key of the grades not given here
T19 chain: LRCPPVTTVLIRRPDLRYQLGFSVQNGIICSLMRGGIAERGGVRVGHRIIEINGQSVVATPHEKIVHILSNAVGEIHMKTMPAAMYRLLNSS

[28] = molecular target: T20, GST-MUPP1 PDZ domain 13 (Homo sapiens (Human)), O75970; assay: G' assay; further: key of the grades not given here
T20 chain: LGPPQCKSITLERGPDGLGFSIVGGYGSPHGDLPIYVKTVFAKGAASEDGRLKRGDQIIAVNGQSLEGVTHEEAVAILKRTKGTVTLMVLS

[29] = molecular target: T21, GST-MUPP1 PDZ domain 7 (Homo sapiens (Human)), O75970; assay: G' assay; further: key of the grades not given here
T21 chain: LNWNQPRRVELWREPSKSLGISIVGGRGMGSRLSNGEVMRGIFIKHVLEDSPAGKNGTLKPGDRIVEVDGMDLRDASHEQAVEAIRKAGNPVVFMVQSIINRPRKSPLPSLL

[30] = molecular target: T22, GST-MUPP1 PDZ domain 9 (Homo sapiens (Human)), O75970; assay: G' assay; further: key of the grades not given here
T22 chain: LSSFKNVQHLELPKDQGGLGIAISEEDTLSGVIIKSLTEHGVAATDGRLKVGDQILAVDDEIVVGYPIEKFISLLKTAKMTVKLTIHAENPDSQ

[31] = molecular target: GST-PAR3 PDZ domain 3 (Homo sapiens (Human)), Q8TEW0; assay: G' assay; further: key of the grades not given here
[32] = molecular target: T23, GST-PTPL1 PDZ domain 2 (Homo sapiens (Human)), Q12923; assay: G' assay; further: key of the grades not given here
T23 chain: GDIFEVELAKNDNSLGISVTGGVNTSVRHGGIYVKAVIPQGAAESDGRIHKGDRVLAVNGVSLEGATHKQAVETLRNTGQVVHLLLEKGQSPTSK

[33] = molecular target: T24, GST-novel PDZ gene PDZ domain 1 (Homo sapiens (Human)), Q9H5P4; assay: G' assay; further: key of the grades not given here
T24 chain: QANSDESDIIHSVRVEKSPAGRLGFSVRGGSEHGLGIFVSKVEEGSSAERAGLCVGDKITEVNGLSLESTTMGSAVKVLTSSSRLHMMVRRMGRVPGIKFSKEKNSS

[34] = molecular target: GST-BAI-1 Associated Protein PDZ domain 2 (Mus musculus (Mouse)), Q6RHR9; assay: G' assay; further: key of the grades not given here
[35] = molecular target: GST-BAI-1 Associated Protein PDZ domain 4 (Homo sapiens (Human)), Q96QZ7; assay: G' assay; further: key of the grades not given here
[36] = molecular target: T25, GST-KIAA0303 PDZ domain 1 (Homo sapiens (Human)), O15021; assay: G' assay; further: key of the grades not given here
T25 chain: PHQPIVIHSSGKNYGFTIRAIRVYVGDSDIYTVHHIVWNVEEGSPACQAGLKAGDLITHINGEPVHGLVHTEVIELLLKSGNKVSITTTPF

[37] = molecular target: GST-PSD95 PDZ domains 1, 2, 3 (Homo sapiens), P78352; assay: G' assay; further: key of the grades not given here
[38] = molecular target: T26, GST-TIP1 PDZ domain 1 (Table 9 insert) (Homo sapiens (Human)), O14907; assay: G' assay; further: key of the grades not given here
T26 chain: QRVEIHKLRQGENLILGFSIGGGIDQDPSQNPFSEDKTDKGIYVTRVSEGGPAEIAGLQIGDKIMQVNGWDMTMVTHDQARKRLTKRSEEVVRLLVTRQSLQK

Sequence of GST-KIAA807 [GST: P08515] (P08515 whole entry, the tested form may be a part): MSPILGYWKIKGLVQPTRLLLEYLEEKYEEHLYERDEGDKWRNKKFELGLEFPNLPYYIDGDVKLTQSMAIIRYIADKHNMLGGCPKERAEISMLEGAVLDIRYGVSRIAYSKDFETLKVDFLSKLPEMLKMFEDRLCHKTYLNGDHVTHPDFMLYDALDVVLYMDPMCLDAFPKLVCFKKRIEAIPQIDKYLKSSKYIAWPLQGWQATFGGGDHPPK
Sequence of GST-KIAA1634 PDZ domain 5 (Homo sapiens (Human)), Q5TCQ9 (Q5TCQ9 other isoform, or with tags, fused parts or gaps): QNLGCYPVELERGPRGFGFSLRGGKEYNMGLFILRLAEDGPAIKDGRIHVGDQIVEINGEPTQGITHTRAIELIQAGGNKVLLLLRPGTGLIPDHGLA
Sequence of GST-Atrophin-1 Interacting Protein PDZ domain 5 (Rattus norvegicus (Rat)), O88382 (O88382 1128-1225): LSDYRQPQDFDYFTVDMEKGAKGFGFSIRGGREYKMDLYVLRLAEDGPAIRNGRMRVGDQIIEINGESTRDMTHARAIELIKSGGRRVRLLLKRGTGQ
Sequence of GST-BAI-1 Associated Protein PDZ domain 6 (Homo sapiens (Human)), Q96QZ7 (Q96QZ7 1143-1233): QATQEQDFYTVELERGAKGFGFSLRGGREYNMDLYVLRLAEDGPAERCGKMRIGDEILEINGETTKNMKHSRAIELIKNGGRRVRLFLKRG
Sequence of GST-PSD95 PDZ domains 1, 2, 3 (Homo sapiens), P78352 (P78352 62-395): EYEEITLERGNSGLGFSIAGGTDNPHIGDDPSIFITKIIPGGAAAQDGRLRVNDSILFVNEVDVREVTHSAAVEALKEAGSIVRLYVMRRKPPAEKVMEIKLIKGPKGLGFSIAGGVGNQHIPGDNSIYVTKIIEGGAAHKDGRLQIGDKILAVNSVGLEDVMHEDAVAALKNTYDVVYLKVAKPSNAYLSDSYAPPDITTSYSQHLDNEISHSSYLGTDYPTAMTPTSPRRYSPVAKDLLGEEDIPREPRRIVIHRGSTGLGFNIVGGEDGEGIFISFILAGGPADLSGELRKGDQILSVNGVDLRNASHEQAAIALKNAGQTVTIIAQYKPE
Sequence of GST-BAI-1 Associated Protein PDZ domain 2 (Mus musculus (Mouse)), Q6RHR9 (Q6RHR9 455-558): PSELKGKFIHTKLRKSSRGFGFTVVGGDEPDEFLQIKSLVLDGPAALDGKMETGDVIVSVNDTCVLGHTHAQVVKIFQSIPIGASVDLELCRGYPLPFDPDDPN
Sequence of GST-PAR3 PDZ domain 3 (Homo sapiens (Human)), Q8TEW0 (Q8TEW0 579-681): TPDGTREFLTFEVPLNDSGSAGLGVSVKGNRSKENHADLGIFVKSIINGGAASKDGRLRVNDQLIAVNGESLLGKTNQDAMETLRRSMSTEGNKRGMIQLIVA
Sequence of GST-KIAA0316 PDZ domain 1 (Homo sapiens (Human)), Q14CM0 (Q14CM0 72-159): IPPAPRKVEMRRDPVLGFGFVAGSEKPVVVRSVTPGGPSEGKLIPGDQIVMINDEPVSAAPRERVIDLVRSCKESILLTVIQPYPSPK
Sequence of GST-BAI-1 Associated Protein PDZ domain 4 (Homo sapiens (Human)), Q96QZ7 (Q96QZ7 other isoform, or with tags, fused parts or gaps): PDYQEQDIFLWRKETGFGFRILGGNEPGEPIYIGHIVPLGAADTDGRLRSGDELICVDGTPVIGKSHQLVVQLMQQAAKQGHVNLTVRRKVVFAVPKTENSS
Sequence of GST-KIAA0147 PDZ domain 1 (Homo sapiens (Human)), Q14160 (Q14160 other isoform, or with tags, fused parts or gaps): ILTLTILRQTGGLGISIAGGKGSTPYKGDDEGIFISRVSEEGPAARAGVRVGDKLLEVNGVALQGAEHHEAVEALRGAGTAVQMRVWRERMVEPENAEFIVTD

QATSRNGHSARQHVVADTEL (modifications not checked) [CD34]
Classification [1]: 1 A450 class | Classification [2]: 1 A450 class | Classification [3]: 1 A450 class | Classification [4]: 1 A450 class | Classification [5]: 3 A450 class | Classification [6]: 1 A450 class | Classification [7]: 5 A450 class | Classification [8]: 1 A450 class | Classification [9]: 1 A450 class | Classification [10]: 1 A450 class

TEGNESSEATSPVNAIYSLA (modifications not checked) [neurofascin (chicken)]
Classification [11]: 1 A450 class | Classification [12]: 1 A450 class | Classification [13]: 1 A450 class | Classification [14]: 1 A450 class

KENDYESISDLQQGRDITRL (modifications not checked) [PAG]
Classification [15]: 2 A450 class | Classification [1]: 1 A450 class | Classification [16]: 3 A450 class | Classification [17]: 1 A450 class | Classification [4]: 1 A450 class | Classification [5]: 5 A450 class | Classification [7]: 5 A450 class | Classification [18]: 2 A450 class | Classification [19]: 1 A450 class | Classification [20]: 1 A450 class | Classification [10]: 4 A450 class | Classification [21]: 2 A450 class | Kd [22]: 350 nM

QPTPTLGLNLGNDPDRGTSI (modifications not checked) [GluR delta-2]
Classification [5]: 4 A450 class | Classification [11]: 2 A450 class | Classification [7]: 3 A450 class | Classification [18]: 2 A450 class | Kd [22]: 4000 nM

VHDAESSDEDGYDWGPATDL (modifications not checked) [zona occludens 3 (ZO-3) PL peptide]
Classification [23]: 1 A450 class | Classification [15]: 2 A450 class | Classification [2]: 2 A450 class | Classification [24]: 1 A450 class | Classification [4]: 2 A450 class | Classification [5]: 5 A450 class | Classification [25]: 2 A450 class | Classification [11]: 1 A450 class | Classification [6]: 1 A450 class | Classification [7]: 5 A450 class | Classification [26]: 2 A450 class | Classification [8]: 2 A450 class | Classification [27]: 2 A450 class | Classification [28]: 2 A450 class | Classification [29]: 1 A450 class | Classification [30]: 1 A450 class | Classification [31]: 1 A450 class | Classification [32]: 2 A450 class | Classification [10]: 1 A450 class | Classification [33]: 1 A450 class

QDFRRAFRRILARPWTQTAW (modifications not checked) [alpha-2B Adrenergic receptor]
Classification [34]: 4 A450 class | Classification [35]: 5 A450 class | Classification [36]: 4 A450 class | Classification [7]: 4 A450 class | Classification [37]: 5 A450 class | Classification [38]: 5 A450 class
